Test results reported in publication PMC10397247.

T1: 4H575-bN
T1 chain: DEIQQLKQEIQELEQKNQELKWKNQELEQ

T2: 4H968-bN
T2 chain: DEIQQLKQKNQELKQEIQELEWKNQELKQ

T3: 4H797-bN
T3 chain: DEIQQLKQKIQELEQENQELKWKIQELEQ

T4: 4H855-bN
T4 chain: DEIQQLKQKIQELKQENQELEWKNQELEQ

T5: 4H591-bN
T5 chain: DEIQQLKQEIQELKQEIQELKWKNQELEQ

T6: 4H683-bN
T6 chain: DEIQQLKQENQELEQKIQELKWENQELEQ

T7: 4H906-bN
T7 chain: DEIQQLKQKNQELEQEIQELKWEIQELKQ

T8: 4H754-bN
T8 chain: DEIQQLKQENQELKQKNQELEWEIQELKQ

T9: 4H953-bN
T9 chain: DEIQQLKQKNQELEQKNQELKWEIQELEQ

T10: 4H457-bN
T10 chain: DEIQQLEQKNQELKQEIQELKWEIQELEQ

T11: 4H626-bN
T11 chain: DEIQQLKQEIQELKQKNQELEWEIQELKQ

T12: 4H918-bN
T12 chain: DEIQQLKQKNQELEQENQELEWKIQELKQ

T13: 4H780-bN
T13 chain: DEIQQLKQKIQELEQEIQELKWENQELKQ

T14: 4H4073-bN
T14 chain: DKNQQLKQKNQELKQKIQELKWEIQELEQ

T15: 4H3926-bN
T15 chain: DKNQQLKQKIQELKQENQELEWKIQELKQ

T16: 4H454-bA
T16 chain: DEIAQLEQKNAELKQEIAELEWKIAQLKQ

T17: 4H72-bA
T17 chain: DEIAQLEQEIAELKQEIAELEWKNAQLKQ

T18: 4H568-bA
T18 chain: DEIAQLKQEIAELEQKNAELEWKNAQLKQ

T19: 4H967-bA
T19 chain: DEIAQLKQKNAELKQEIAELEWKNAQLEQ

T20: 4H754-bA
T20 chain: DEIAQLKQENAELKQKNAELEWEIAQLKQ

T21: 4H4001-bA
T21 chain: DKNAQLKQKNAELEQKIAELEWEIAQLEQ

T22: 4H717-bA
T22 chain: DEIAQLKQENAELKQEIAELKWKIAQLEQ

T23: 4H953-bA
T23 chain: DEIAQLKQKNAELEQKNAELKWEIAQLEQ

T24: 4H797-bA
T24 chain: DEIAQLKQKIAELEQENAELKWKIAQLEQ

T25: 4H462-bA
T25 chain: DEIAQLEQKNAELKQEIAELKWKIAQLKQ

T26: 4H607-bA
T26 chain: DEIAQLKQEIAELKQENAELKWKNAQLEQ

T27: 4H883-bA
T27 chain: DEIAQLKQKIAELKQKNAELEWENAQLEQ

T28: 4H908-bA
T28 chain: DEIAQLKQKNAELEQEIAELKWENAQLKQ

T29: 4H918-bA
T29 chain: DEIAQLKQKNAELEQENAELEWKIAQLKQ

T30: 4H687-bA
T30 chain: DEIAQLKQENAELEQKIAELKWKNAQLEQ


How the values were obtained:
Experiment in all cases: two-hybrid library CCNG1;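 note: natural log of median RNA to DNA barcode read ratio; higher means stronger binding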
4H575-bN = target: T1, 4H575-bN
4H968-bN = target: T2, 4H968-bN
4H797-bN = target: T3, 4H797-bN
4H855-bN = target: T4, 4H855-bN
4H591-bN = target: T5, 4H591-bN
4H683-bN = target: T6, 4H683-bN
4H906-bN = target: T7, 4H906-bN
4H754-bN = target: T8, 4H754-bN
4H953-bN = target: T9, 4H953-bN
4H457-bN = target: T10, 4H457-bN
4H626-bN = target: T11, 4H626-bN
4H918-bN = target: T12, 4H918-bN
4H780-bN = target: T13, 4H780-bN
4H4073-bN = target: T14, 4H4073-bN
4H3926-bN = target: T15, 4H3926-bN; conditions: mean of both orientations
4H454-bA = target: T16, 4H454-bA
4H72-bA = target: T17, 4H72-bA
4H568-bA = target: T18, 4H568-bA
4H967-bA = target: T19, 4H967-bA
4H754-bA = target: T20, 4H754-bA
4H4001-bA = target: T21, 4H4001-bA
4H717-bA = target: T22, 4H717-bA
4H953-bA = target: T23, 4H953-bA
4H797-bA = target: T24, 4H797-bA
4H462-bA = target: T25, 4H462-bA
4H607-bA = target: T26, 4H607-bA
4H883-bA = target: T27, 4H883-bA
4H908-bA = target: T28, 4H908-bA
4H918-bA = target: T29, 4H918-bA
4H687-bA = target: T30, 4H687-bA

Binder	interaction score (4H575-bN)	interaction score (4H968-bN)	interaction score (4H797-bN)	interaction score (4H855-bN)	interaction score (4H683-bN)	interaction score (4H754-bN)	interaction score (4H953-bN)	interaction score (4H457-bN)	interaction score (4H918-bN)	interaction score (4H780-bN)	interaction score (4H4073-bN)	also measured
DKNQQLKQKIQELKQENQELEWKIQELKQ [4H3926-bN]	0.813	-0.934	-0.358	-0.684	-1.15	-0.867	-0.788	1.06	-2.11	-0.772	-1.26	interaction score (4H591-bN): 0.172; interaction score (4H906-bN): -0.529; interaction score (4H626-bN): -0.388; interaction score (4H3926-bN): -0.623
DKNAQLKQKNAELEQKIAELEWEIAQLEQ [4H4001-bA]												interaction score (4H454-bA): 1.01; interaction score (4H72-bA): -1.27; interaction score (4H568-bA): -1.47; interaction score (4H967-bA): -1.03; interaction score (4H754-bA): -1.03; interaction score (4H4001-bA): -0.927; interaction score (4H717-bA): -2.02; interaction score (4H953-bA): -1.52; interaction score (4H797-bA): -1.28; interaction score (4H462-bA): -0.0948; interaction score (4H607-bA): -1.34; interaction score (4H883-bA): -0.688; interaction score (4H908-bA): -0.992; interaction score (4H918-bA): -1.15; interaction score (4H687-bA): -1.34
DKNQQLKQKNQELKQKIQELKWEIQELEQ [4H4073-bN]	-1.72	-1.13	-0.921	-0.729	-1.31	-1.18	-1.56	-0.816	-0.772	-0.882	-1.77	
